Molecular target: the molecule itself
Assay: SEC; gel filtration of the purified native enzyme, buffer and standards not told

B1: D-psicose 3-epimerase from Clostridium scindens ATCC 35704 (hypothetical protein CLOSCI_02528) (enzyme, UniProt B0NGC5 1-289, looked up)
chain: MKHGIYYAYWEQEWAADYKRYVEKAAKLGFDILEVGAAPLPDYSAQEVKELKKCADDNGIQLTAGYGPAFNHNMGSSDPKIREEALQWYKRLFEVMAGLDIHLIGGALYSYWPVDFATANKEEDWKHSVEGMQILAPIASQYGINLGMEVLNRFESHILNTSEEGVKFVTEVGMDNVKVMLDTFHMNIEESSIGDAIRHAGKLLGHFHTGECNRMVPGKGRTPWREIGDALREIEYDGTVVMEPFVRMGGQVGSDIKVWRDISKGAGEDRLDEDARRAVEFQRYMLEWK
notes: D-psicose 3-epimerase (hypothetical protein CLOSCI_02528, protein ID ZP_02432283) of Clostridium scindens ATCC 35704; full-length synthetic gene cloned NdeI/XhoI into pET-22b(+); No removal of the C-terminal 6xhistidine tag is described; Metal-free after dialysis against EDTA; Subunit about 32 kDa by SDS-PAGE, native enzyme about 125 kDa by gel filtration; also called C. scindens DPEase; DPEase
For B1, the “stoichiometry N” value was 4.
